Assay [1] has as its target T1, human Pex5p(C), cargo-binding domain of Pex5p (residues 315-639), wild-type (human, UniProt P50542 315-639, biotin (EZ-Link Sulfo-NHS-Biotinylation Kit, between 1 and 2 moles of biotin per mole) in the Octet RED96 assay only).
T1 construct: The His6-GST fusion is cleavable with TEV protease; also called Pex5p(C) WT; HsPex5p(C)
As to the kind of experiment: BLI; Octet RED96; biotinylated Pex5p(C) immobilised on streptavidin sensors at 20 μg/mL; PBS, 1000 rpm; association 1800 s, dissociation 1800 s; local fits, 1:1 model. To be noted: both partners purified. A general note: BLI is a label-free optical method that tracks binding on a fibre tip over time.

The target in assay [2] is T2, human Pex5p(C) (residues 315-639) D624W (human, UniProt P50542 315-639, D624W, biotin (EZ-Link Sulfo-NHS-Biotinylation Kit, between 1 and 2 moles of biotin per mole) in the Octet RED96 assay only).
T2 construct: Made by QuikChange on the His6-GST Pex5p(C) plasmid; also called Pex5p(C) D624W
The assay is described as above. The conditions noted are these: both partners purified.

Assay [3] concerns the target T3, human Pex5p(C) (residues 315-639) S600W, infantile Refsum disease mutant (human, UniProt P50542 315-639, S600W, biotin (EZ-Link Sulfo-NHS-Biotinylation Kit, between 1 and 2 moles of biotin per mole)).
T3 construct: also called Pex5p(C)S600W
Described as above. The conditions noted are these: both partners purified.

The target of assay [4] is T4, human Pex5p(C) (residues 315-639) R608W (human, UniProt P50542 315-639, R608W, biotin (EZ-Link Sulfo-NHS-Biotinylation Kit, between 1 and 2 moles of biotin per mole) in the Octet RED96 assay only).
T4 construct: Made by QuikChange on the His6-GST Pex5p(C) plasmid; also called Pex5p(C) R608W
The assay is described as above. The conditions noted are these: both partners purified.

Assay [5] addresses T5, Gal4DB-mSCP2 (21-143), two-hybrid fusion (human, UniProt P22307-2 21-143).
T5 construct: sterol carrier protein 2, human, residues 21-143; numbers count on: preSCP2 of 143 residues; In pPC97 between SalI and NotI; source: yeast two-hybrid fusion (S. cerevisiae PCY2)
T5 sequence (looked up): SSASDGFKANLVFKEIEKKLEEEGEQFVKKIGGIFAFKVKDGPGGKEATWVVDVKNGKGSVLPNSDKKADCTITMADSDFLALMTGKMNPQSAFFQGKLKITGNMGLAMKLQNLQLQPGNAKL
As to the kind of experiment: two-hybrid; GAL4 based, S. cerevisiae PCY2; Gal4AD-Pex5p(C) with Gal4DB-SCP2 variants; β-galactosidase activity (A420 per mg protein per min), mean of three measurements. To be noted: partners not purified.

For assay [6], the target named is T6, Gal4DB-preSCP2 (1-143), two-hybrid fusion (human, UniProt P22307-2 1-143).
T6 construct: sterol carrier protein 2, human, residues 1-143, printed length 143; numbers count on: preSCP2 of 143 residues; In pPC97 between SalI and NotI; source: yeast two-hybrid fusion (S. cerevisiae PCY2)
T6 sequence (looked up): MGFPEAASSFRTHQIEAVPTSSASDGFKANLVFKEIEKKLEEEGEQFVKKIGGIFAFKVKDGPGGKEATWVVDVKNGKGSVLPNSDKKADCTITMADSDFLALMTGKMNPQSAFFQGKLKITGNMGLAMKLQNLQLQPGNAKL
The assay is described as above. To be noted: partners not purified.

Assay [7] addresses T1, human Pex5p(C), cargo-binding domain of …. As to the kind of experiment: ITC; MicroCal VP-ITC; Pex5p(C) wild-type or mutant titrated with mSCP2 or the peptide PGNAKL; as described in ref 4. The conditions noted are these: both partners purified.
For assay [8], the target named is T2, human Pex5p(C) (residues 315-639) D624W. The description is as above. The conditions noted are these: both partners purified.
The target in assay [9] is T4, human Pex5p(C) (residues 315-639) R608W. The description is as above. The conditions noted are these: both partners purified.

B1: sterol carrier protein 2 with presequence, preSCP2 (1-143) (natural protein, human, UniProt P22307-2 1-143, looked up)
chain: T6 sequence (looked up)
notes: numbers count on: preSCP2 of 143 residues; The His6-GST fusion is cleavable with TEV protease; also called full-length SCP2
In the case of B1, the koff – broadly, the rate constant with which the complex falls apart – came to 7.9e-05 s⁻¹ in assay [1], 8.6e-05 s⁻¹ in assay [2], 5.1e-05 s⁻¹ in [3] and 5e-05 s⁻¹ in [4]. The on-rate constant (kon) (commonly the second-order rate constant of association) in assay [1] is 35000 M⁻¹ s⁻¹; in assay [2] it was 13000 M⁻¹ s⁻¹; in assay [3], 7300 M⁻¹ s⁻¹; in assay [4] it was 9000 M⁻¹ s⁻¹.

B2: Gal4AD-Pex5p(C) (residues 315-639) R608W, two-hybrid fusion (domain or fragment)
chain: not shown
notes: also called Pex5p(C) R608W; source: yeast two-hybrid fusion (S. cerevisiae PCY2)
Consider B2, for which the “fold reduction of the two-hybrid interaction against wild-type Pex5p(C)” value in [5] and in assay [6] was 3 fold throughout.

B3: PTS1 hexapeptide PGNAKL derived from the C-terminus of SCP2 (peptide)
peptide: PGNAKL
notes: C-terminal six residues of sterol carrier protein 2, human; numbers count on: preSCP2 of 143 residues; Free C-terminal carboxylate (PGNAKL-CO2-) as printed in the background; also called PGNAKL-CO2-; source: synthetic peptide (Sigma-Aldrich, > 95% purity)
Consider B3, for which the equilibrium dissociation constant (Kd) (in general, the constant that tells how readily two partners part at equilibrium) in assay [7] came to 547 ± 6 nM; in assay [8], 763 nM; in assay [9], 635 ± 25 nM. Moreover, the dH in assay [7] was -10.2 kcal/mol; in [8], -13.1 kcal/mol; in assay [9] it was -12.3 kcal/mol. Moreover, the stoichiometry N (usually a count of units in the complex or per binding partner) in assay [7] is 0.94 ± 0.02; in assay [8] it was 0.49 ± 0.01; in [9], 0.81 ± 0.01.

B4: mature sterol carrier protein 2, mSCP2 (21-143) (natural protein, human, UniProt P22307-2 21-143, looked up)
chain: T5 sequence (looked up)
notes: numbers count on: preSCP2 of 143 residues; The His6-GST fusion is cleavable with TEV protease
Regarding B4, the Kd in assay [7] came out at 95 ± 21 nM; in assay [8], 45 ± 8 nM; in assay [9], 179 ± 19 nM. For the same molecule, the dH in assay [7] was -10.4 kcal/mol; in [8] it was -13.3 kcal/mol; in [9], -17.1 kcal/mol. Also, the “stoichiometry N” value was found to be 0.93 ± 0.03 in [7], 0.41 ± 0.08 in [8] and 0.61 ± 0.06 in [9]. Also, the koff in assay [1] was determined as 5.5e-05 s⁻¹; in [2], 0.00015 s⁻¹; in assay [3], 6e-05 s⁻¹; in assay [4], 7.3e-05 s⁻¹. The kon in assay [1] is 23000 M⁻¹ s⁻¹; in [2] it was 11000 M⁻¹ s⁻¹; in [3] it was 6500 M⁻¹ s⁻¹; in assay [4] it was 7200 M⁻¹ s⁻¹.

Values taken from article PMC3060121, “The Peroxisomal Targeting Signal 1 in sterol carrier protein 2 is autonomous and essential for receptor recognition” (BMC Biochemistry, 2011).
